One block for each binder: values may come before it.
Columns and labels:
[1] = biological target: the molecule itself; experiment: crystal structure
[2] = biological target: T1, apo-FabA (E. coli fatty acid 3-hydroxyacyl-ACP dehydratase, unlabeled, not crosslinked) (E. coli, UniProt P0A6Q3 2-172); experiment: NMR titration
T1 sequence: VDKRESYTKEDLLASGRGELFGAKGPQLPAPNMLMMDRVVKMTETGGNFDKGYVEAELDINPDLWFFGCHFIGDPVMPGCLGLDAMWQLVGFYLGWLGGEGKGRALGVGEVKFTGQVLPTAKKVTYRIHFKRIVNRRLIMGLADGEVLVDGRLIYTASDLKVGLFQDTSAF

B1: FabA (E. coli fatty acid 3-hydroxyacyl-ACP dehydratase) as in the crosslinked AcpP=FabA complex (enzyme)
chain: T1 sequence
modifications: H70 covalently connected through probe 1 to S36 of AcpP
stoichiometry N [1]: 2

binding result [2]: binds
B2: holo-AcpP (E. coli acyl carrier protein with 4'-phosphopantetheine) (natural protein)
chain: STIEERVKKIIGEQLGVKQEEVTNNASFVEDLGADSLDTVELVMALEEEFDTEIPDEEAEKITTVQAAIDYINGHQA
modifications: 4'-phosphopantetheine (PPant) on S36

binding result [2]: binds
B3: octanoyl-AcpP (E. coli acyl carrier protein with octanoyl-4'-phosphopantetheine) (natural protein)
chain: B2 chain
modifications: octanoyl chain on the PPant arm attached to S36
